From the DeepSol protein solubility set

assay: soluble on expression in E. coli; label from the status in PepcDB or PDB records

Soluble on expression in E. coli, soluble:
MSGQSLTDRITAAQHSVTGSAVSKTVCKATTHEIMGPKKKHLDYLIQCTNEMNVNIPQLADSLFERTTNSSWVVVFKSLITTHHLMVYGNERFIQYLASRNTLFNLSNFLDKSGLQGYDMSTFIRRYSRYLNEKAVSYRQVAFDFTKVKRGADGVMRTMNTEKLLKTVPIIQNQMDALLDFNVNSNELTNGVINAAFMLLFKDAIRLFAAYNEGIINLLEKYFDMKKNQCKEGLDIYKKFLTRMTRISEFLKVAEQVGIDRGDIPDLSQAPSSLLDALEQHLASLEGKK, MSHLKDPTTQYYTGEYPKQKQPTPGIQAKMTPVPDCGEKTYVGSGRLKDRKALVTGGDSGIGRAAAIAYAREGADVAISYLPVEEEDAQDVKKIIEECGRKAVLLPGDLSDEKFARSLVHEAHKALGGLDIMALVAGKQVAIPDIADLTSEQFQKTFAINVFALFWLTQEAIPLLPKGASIITTSSIQAYQPSPHLLDYAATKAAILNYSRGLAKQVAEKGIRVNIVAPGPIWTALQISGGQTQDKIPQFGQQTPMKRAGQPAELAPVYVYLASQESSYVTAEVHGVCGGEHLG, MSIAQEFEKANTHYSSNFTKRDLPLPPARKVAVVICMDARIDPAASLGLTEGDAHVIRNAGGRASDALRSVIISQRLLGTREIVVVHHTDCGMLTFSDNDLRGIVAKETGHNVDHFAFLPFGDLEKSVKDDVEFFKRNPLVLDVPVTGYIYDVKSGAINKVDS, MSIAVGMIETRGFPAVVEAADSMVKAARVTLVGYEKIGSGRVTVIVRGDVSGVQASVSAGIEAANRVNGGEVLSTHIIARPHENLEYVLPIRYTEEVEQFRTYGVPRGLEHHHHHH, MSIEIANIKKSFGRTQVLNDISLDIPSGQMVALLGPSGSGKTTLLRIIAGLEHQTSGHIRFHGTDVSRLHARDRKVGFVFQHYALFRHMTVFDNIAFGLTVLPRRERPNAAAIKAKVTKLLEMVQLAHLADRYPAQLSGGQKQRVALARALAVEPQILLLDEPFGALDAQVRKELRRWLRQLHEELKFTSVFVTHDQEEATEVADRVVVMSQGNIEQADAPDQVWREPATRFVLEFMGEVNRLQGTIRGGQFHVGAHRWPLGYTPAYQGPVDLFLRPWEVDISRRTSLDSPLPVQVLEASPKGHYTQLVVQPLGWYNEPLTVVMHGDDAPQRGERLFVGLQHARLYNGDERIETRDEELALAQSA, MSIEIKTNSVEPIRHTYGHIARRFGDKPATRYQEASYDIEAKTNFHYRPQWDSEHTLNDPTRTAIRMEDWCAVSDPRQFYYGAYVGNRAKMQESAETSFGFCEKRNLLTRLSEETQKQLLRLLVPLRHVELGANMNNAKIAGDATATTVSQMHIYTGMDRLGIGQYLSRIALMIDGSTGAALDESKAYWMDDEMWQPMRKLVEDTLVVDDWFELTLVQNILIDGMMYPLVYDKMDQWFESQGAEDVSMLTEFMRDWYKESLRWTNAMMKAVAGESETNRELLQKWIDHWEPQAYEALKPLAEASVGIDGLNEARAELSARLKKFELQSRGVSA, MSIFNGIKEEQMDILREVGNIGAGHSASAMAQLLNRKIDMEVPFAKLLSFDELVDFFGGADVPVASIFLRMEGDLTGSMFFIMPFFQAEQFIRELIGNPDFDIEDLGEDHMSSSALHELGNILAGSYLTALADLTKLQLYPSVPEVSLDMFGAVISEGLMELSQVGEHAIVVDTSIFDQSHQQELKAHMFMLPDYDSFEKLFVALGASL, MSILDTEVTLINGEKASMDQWAGHCLLIVNTASECGYTPQLETLEELYEDYAMRGFFVIGVPCNQFGEEEPGKDAQVARRYEEKFGVRFPLLAKSDVNGPNTIELYKKLKGDGPDIEWNFEKFIVAPSGEVVGRFAPSLDPDDMKIINVLEEYLPI

Soluble on expression in E. coli, not soluble:
MSGRKIAAATVQNRTQTPFWNWLKQKLLASDRLPITPPPGIAGPDGKAVYQNPLRFPNTQSARPCSAELPALPGGVHHKLADNYYLTRDGRRNVDAPKVLYSSGEFVGGEKAQPAQVNQGVATNFGLTAPTPGFGAEWSRSKQNELASQQKNTEFEYLQRFDKFTKSA, MSGRLIGKVALVSGGARGMGASHVRAMVAEGAKVVFGDILDEEGKAVAAELADAARYVHLDVTQPAQWTAAVDTAVTAFGGLHVLVNNAGILNIGTIEDYALTEWQRILDVNLTGVFLGIRAVVKPMKEAGRGSIINISSIEGLAGTVACHGYTATKFAVRGLTKSTALELGPSGIRVNSIHPGLVKTPMTDWVPEDIFQTALGRAAEPVEVSNLVVYLASDESSYSTGAEFVVDGGTVAGLAHNDFGAVEVSSQPEWVT, MSHPALTQLRALRYFDAIPALEPHLLDWLLLEDSMTKRFEQQGKRVSVTLIREAFVGQSEVEEASGLLPSESRYWLREILLCADGEPWLAGRTVVPESTLCGPEQVLQHLGKTPLGRYLFTSSTLTRDFIEIGRDATLWGRRSRLRLSGKPLLLTELFLPASPLY, MSHPVVIKENMTVYDAICTIFLEDVSTLFITNENNDFVGVCSRKDLLRASMIGEDIHTMPISVNMTRMPHVSYLKEQELVIYAANQMIDKEIDSLPIVRPKENDKFEVIGRISKTTITKLFVSLFKE, MSHTSNFTRNFHCRSSSNKRSESEKSPSFSKKRRRARALDPDEFIPPVEGPDVQKIDSETSRKCHSIKGFNVNKDGSVRRLEDNSKYEHNKSSRQKRSEAAPLENSEGKSTKSRKLSSPSKKSNKKSISKKSDRSKVSKVKRSPKTDKELEKKPSSIYERKDVDGHDDLKVPNMRSRKHSENSKNLFDYFFWFSLQTSKMKSLNYIEMLSNGDIKAPISAVFCPTRGSSTAPNCFAIIGVWRRRKKRSVSKLIKIGFSIPQSMEILTKKGQLFPNLITRQIPMEIRAVNFAHLHFSHRLVDFASGDDVLCDRIQHTIHVQS, MSHVQAVIFDAFGTITRIENARHPFRQLLKLGIAQGRRPKPDDASMLMRHPWGLAQAADHFGIDVTPAELARIQAELDAEVASIQPFADALACIEALQAHGLKVAVCSNLARPYGAAVKRIFPGLESYGFSYEIGTLKPDRRIYEAALTELAVDACKVWMIGDSQRCDRDGPIALGIKGHYLNRTGAGSPSDFRDLMAFKHSVFESRSP, MSICTRKFINKLGFPNFGGESVQIAISGGKGWNWKIYSRHKSCSKMGVKRTLADLDVEAPNDHLLLGVSLANEEPVYQFMPHFDYLKCIKRRKCAKVCEEHAIVTLKDGTPFLMPTLCSGCRACEIVCPVPGAIREMAGDPLEHHHHHH, MSIKIKNAVEIEKMRVAGRLAAEVLEMIEPHVKAGVTTEELDQICHKYITEVQGAIPAPLNYHGFPKSICTSINHIVCHGIPASEDTYFGQIQRPAVLRDGDILNIDITVIKDGYHGDTSKMFLIGDVSIEDKRLCHVAQECLYLALKQVKPGVQLGEIGTTIEKHIKTNNKNNPRFKFSIVRDYCGHGIGAEFHEEPQVVHYKNSDRTVLREGMIFTIEPMINAGKFGCRLDDEDSWTVYTADGKKSAQWEHTILVTATGCEILTLRSEESLPRILNNA, MSIKQWPEGERPREKLLERGAAALSDAELLAILLRVGTRGMSAVDLARYLLQEFGSLGRLMSAEVGKLSAYKGMGTASFTQFAVVREIGRRILAEELQESIVLSDPDTVADYLRFHLGQEKVEVSVALLLNRQNQLIAVRELSRGTVAENTIYIREIVKLALDEYADSLIIAHNHPGGSPEPSQEDIMFTRRLAQAMSLVDVSLLDHFIVTSQSVCSFRQLGLMP, MSILMPVRNEERFLPAALASLCRQSLTAWELIVVDDGSTDDTPELLRVAAARDRRVRVFNNAGAGLVDALNYGLAHCRAELVARMDGDDISHPQRLERQAAALDADPGLGLVATRFRHFPRHSVGLGMRAYEEWQNGLLTHEEIMRDRFVESPVVHPSVMARRQALTDAGGYRKTGWAEDYDLWLRLAAGGVRFTRLPEVLFFWRERPERATRTMGEYAADAFRACKIHHLCQGFLLGVDNVTLAGAGLEGRAWQRALAREGVRVGRWLDVDPRKQGRILHGAPVTAPDDVRAGAEKILVTVGTRGARDGVRAWARRAGLREGEDFVCVTLEHHHHHH
